From the supplement of paper PMC12636428

These sequences were tested on Saccharomyces cerevisiae (assay: transcriptional activation domain activity (GFP:mCherry ratio, weighted mean of sorted bins, harmonized to initial dataset scale) (arbitrary fluorescence ratio units); higher = stronger transcriptional activation). Details: beta-estradiol 1 µM; induction time 4 h.
Procedure, shortened: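 The activation activity of each tile is the read-weighted mean of bin median fluorescence, averaged across its barcodes and mapped linearly onto the scale of the initial dataset. Tiles were fused to an estradiol-inducible synthetic transcription factor, barcoded, and integrated at URA3 in yeast diploids carrying a GFP reporter. Induction used 1 uM beta-estradiol in SC for 4 hours at 30 °C, after which cells were sorted into 8 GFP:mCherry bins, and any tile with fewer than 50 reads was dropped.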

Sequence | transcriptional activation domain activity
FRFQQCMTRAMTLIKMYFVGSLRALSLDVFKRLSEKDVSPTAQMHLLYTRFKT | 56200
FRLAFMLICVDVFLALFHILDYVLYIPSRVCTFSAWGTLTCELMTIFLNVTIA | 52500
FRLVPFVLWPPFTRRQTDELYLFSWSFLALIWFFIWSLVQFPIVLTVLLSLVF | 52000
FRMVLLVYQVAWAVHVYRTRNIALAYLNNYARMMYAIRSYNYQCLFHQIDLEG | 57100
FRNGPWWCLAHYIMRAMAVFLLAMSPQVLQVHTDLVLPVKKLIRWLQWMRQDD | 64200
FRPAPPPCSPAPPSPSSSPSSSSPPPPPPSRARRWSSAARARNAATTPCASSG | 37900
FRRYKGPGREDEETDDEDEVRPRRPMEMKKRVLHLLTTEITINTTLYGDFTAF | 27700
FRSFVLMRLLVPIPAYFVLSCMFSMINLPFKLSFGGMGYGYGAGFMIWWCFTF | 65100
FRSGHSFPRKFGFCVEFTYNFISLLFNWFGLVSASIFFFCFSLFLFFVFYVLT | 25000
FRVASYRIWCLLGCGSVWSLIYVPLAWNDGFSLFYLLHPWKIVRVFILNVLAG | 54700
FRVNLMSCIVARLSKKSWIRSVSFPADLTGTASLEIVRLLNRMVKEKRFNIHP | 36300
FRYLSYSKWLILALYINSWAYVVLSMLLVYVVSASRKGRWRSASYRFHMILLS | 64100
FSAEIAILRWLKGNRQNDYIGALTSINRGLKLMYVHAYQSLVWNRAVSERWAR | 57900
FSDGELSDDALDKQGKKEKKRKAKAIESGDATPVESKPEKERKKKKSKPEAET | 31100
FSFFFFLFSLFLSFPSFLLPSFLLLFLSFYFSPSYLLLCLFSLIFYKLWPLFL | 25500
FSFFHPLHFLPWLLYPSPLISLFFLSFFILFSFFVFFFSCPFFLSLFHIFFPV | 33000
FSFGLLFWFLFLFLFLLLFVFLFWSFGFVLLLVLVLFLCSFLLFMFGFWFSSG | 47100
FSFGLYLLYHSPYWMNVAQLWVNYPHIEFMPGIKKYYLIQMSYWLQQMYFIQI | 48700
FSHIQPGLNVPVRTIMFCFLFNVAFGLLYLGPSVAFGAYVASCTILLNISYAF | 70800
FSIVACVVGCQDSEWGLQFSHERCFTLHTLGHLSQFEKIVVVLIACKLLLFSK | 65200
FSLAGSNYLGICWNPAVKNCIPYDTYLLWIRCMPFWYLFVFLYDIIPPILIVY | 59800

Sequence | transcriptional activation domain activity
FSLFGSFGCFGSLTLLLSLVMPVVLFVMLQWVMVWIWSCCFIFRLGMLTSFDV | 54500
FSLFLLSLLPTADAFFPLLLFVSCWLTLYTFVLCLLSYFFYSLTLTLYVCLVS | 55800
FSLGLRTPLDHLLLAFFVLCGLTRLARFNVTVAMLPKDATGKSQYFEGTPIPT | 73300
FSLGTVLLALCRYLPFGTILQIYVLFLRVESPLCVNGYRAIAFPVVCLWVLLV | 52600
FSLIKGLGSLVPLNKLRQESLLEEEDENNTEPSDFRTIVEEFQSEYNISDILS | 45000
FSLLLDSYIFLFNYCPVRYRYGYLIKDLVQNASRIKSIYTNSDLKFLFSFVWM | 53800
FSLLSFCCLLVPLLLSYIPLTTSHVFPILLFFFTLPLTSALPLLLLYLFHELL | 47000
FSLSLHICFIFSRLIMLHCIFSLLKMIPFCAKFFCFFLFLFLFSPFLLYILFV | 54000
FSMRFVVLIDLFATFLQPASIIYVLYLIYVAAFDKATAFPMISLIMLACIYGL | 17000
FSMTVGFTTAFSFLFLGYPTWGTRLWSFLPFWIGFYNLFVFLSKLDPIWAILF | 48800
FSSINANPFDLDEQLAIELSAFADDSFIFPDEDKPSNNNNNSNNGNDDHSNHD | 80300
FSSLEDSLPSSISPPIQTTSTINFNWCFKEEKNNDLKCKWKECPESCSSLFDL | 69800
FSTSLTSWSTSLNLLFFYMTWSTLVLSHSPLRIELIGITAIRTVLWLIPSLVF | 63100
FSVLFSKLFVWGILPYQTVGVVIQHTCQAVFLFVNIYWTFWRNWPWVQSGFFT | 80100
FSWFALANIWLMFSIIIDLLPGQNIIIFGTADIICGTHWMNLVFKWIYLAFLV | 36900
FSWVELCLSVTWWFFPACLLLSDTLVLVYLTPGLDVLVPFSMIFVYCFLGLPP | 52300
FSYFYCFFFPLFTFFLFHIFVLLSIKQFLFLFLFVFLFLVLLFIVPPLFPVSV | 17300
FTELEKHSNVSQFNTLDVSEGNQVINESASTNTSSALNCQSYTNNQDIMDILF | 48800
FTFILMMACLVSGIGWCLLYFTCMYLLLIYYILSLFYPPLASCNSFSFFFSFV | 64100
FTKTIMHITLILNILMNMCVAPTLLPLQVYYWLTKYYCACHGCLPHFTVIALF | 60900
FTKVIKLVSHFVLYFINICFILITIFFGYFYNLIKFYILLTLYLVSLRTLLSL | 47700

Sequence | transcriptional activation domain activity
FTMLIGRKRPDVSTCVLIAVVISQCLFYVVVFFVKILGLVKYFLLFSSLADKL | 56300
FTPWLSSTFFLFFAVIRWGAYCLVPLLLPSFPSIPLSLYPIRFPSTHVLVLIV | 61000
FTQFEDTWNLDVTPNFLPDLNDFDMERLDFSLADDFAQSIASFPYSPPETLLI | 149000
FTRHLSKEEIDVVVDCVWRASKLRNCTRVTVMECCVRTAPWFNSDGVICAYIM | 49700
FTRVDICFRNCYAGGTVVLVYSALAFFLLLMIAMYGNGYHGPFAWMTFTLSTV | 53000
FTSIMMTLVSLVQVGLLQFQCRDLLLCGIYIFYCLIKVPYLSLICSATLLVYG | 44300
FTSPLPFALVPLFMYGDAQNWCWFTKQNTLYGIYLWFMWLWILFAFNLVCLFF | 56600
FTYMDRLQLIQAPFPWRDRMALTAITEFVATYYQNMHVDITVTMRKLGYLEKL | 60800
FVARLFQSLRRWWDSGLTTHLINASLFFISDGGKYFMGILCYFFQHLWRHHGM | 47900
FVCVASAIGGVGYLLLLTVAENVHVRYFATFCIVSGTYTTIGIVIAWFAHNLG | 48700
FVEDPEMRRSIVRKFDWRVLTWMAGLSSYLRLWVLYRSSLTRLLMCLVLCINA | 69800
FVEKGRERERGKGRRGGGGGAGEEQREGGGGGRGGGRGKTVVVVVRDVASSGD | 25100
FVGFVGSLKRQFLRQQFGLFCWVHMSLLLIVCASHFVMNNILEGMIWFWVPAS | 60400
FVGIRDRTTFLLFTSAWTVVFSLLFVLLFMHSASTGSPLTSVASHFVVFLLTW | 56900
FVGNQAGCYNLVPVYDWIKRCIISIFVVFFISFLPLFLQELCERGVIRALYRL | 72800
FVGPQLCRDDAWLHTSIQFTRNVGITRNLLRMLPAVVRPIVARLLPSYWRIYS | 41700
FVHVYLRKRISGFPPGYRVAGELIIWCGAVVALSFESILATDASGSGYRLSDP | 58200
FVIGMSICRAAPGLYIYCWKENIFFLEPSYKSAAVVLSWVWFQVFLLLSQQFF | 59200
FVLDTFLWYIIWNTDIYTRLPKRIYAKILATADMEVKYKPKVLVSQIWNAVLI | 14000
